Laboratory results from patent US10154957B2, “Microneedle device having a peptide therapeutic agent and an amino acid and methods of making and using the same” (3M INNOVATIVE PROPERTIES COMPANY, priority 2011, dated 2018).

What was measured:
[1] = Stability of insulin in coating on flood-coated microneedle arrays stored at 40° C./96% RH (HPLC); format: physicochemical; settings: Amino Acid L-Histidine (His-HCl 12 mg/mL), insulin 5 mg/mL in 0.1 N acetic acid
[2] = as above; format: physicochemical; settings: insulin 5 mg/mL in 0.1 N acetic acid
Procedure: The protein or polypeptide content in the formulation coated on the microneedle arrays was determined using an Agilent 1100 HPLC system (Agilent Technologies, Wilmington, Del.) equipped with a binary pump, well-plated thermostated autosampler, thermostated column compartment, and a diode array UV detector. A Zorbax 300SB-C8 column (Agilent Technologies, Wilmington, Del.) having a 5 μm particle size and 2.1×150 mm inner diameter was used for the separations. The column was maintained at 50° C. The mobile phase consisted of two eluents. Eluent A was 0.1% TFA (trifluoroacetic acid) in water and eluent B was 0.1% TFA in acetonitrile (Spectrum Chemical, New Brunswick, N.J.). A linear gradient from 80/20 to 50/50 (A/B) was applied over 30 minutes. The flow rate was 0.4 mL/minute and the UV detection wavelength was set at 214 nm. The total run time was 34 minutes and the sample injection volume was 15 μL.
The pH of the sample formulation was 3.0-3.5. […] The pH of the control formulation was 3.0-3.5. Microneedle arrays were coated with either the sample or the control formulation. The coating was applied by dropwise addition of 50 μL of the formulation to the portion of the array defined by the octagon shaped pattern of microneedles. The flood coated arrays (both sample and control formulation coated) were dried in an oven at 35° C. for about 15 hours.
After drying, the coated arrays were placed in a storage chamber that was maintained at 40° C. and 96% relative humidity (RH). […] At the designated time point, an array was taken from the chamber and washed with 0.1 N acetic acid (1 mL) to remove the coating from the array. […] The arrays used as reference standards were stored in a refrigerator at about 4° C. and analyzed within one day of being prepared.
The same procedure as described in Example 5 was used with the exception that the sample formulation contained 12 mg/mL of L-arginine hydrochloride, instead of L-histidine monohydrochloride. The pH of the sample formulation was 3.0-3.5.

Insulin
Percent of Initial Insulin Content in the Coating ([1]; Day 1 at 40° C./96% RH): 95.3% | Percent of Initial Insulin Content in the Coating ([1]; Day 3 at 40° C./96% RH): 93.5% | Percent of Initial Insulin Content in the Coating ([1]; Day 7 at 40° C./96% RH): 79.2% | Percent of Initial Insulin Content in the Coating ([1]; Day 14 at 40° C./96% RH): 34.9% | Percent of Initial Insulin Content in the Coating ([1]; Initial): 100% | Percent of Initial Insulin Content in the Coating ([2]; Amino Acid L-Arginine (Arg-HCl 12 mg/mL), Day 1 at 40° C./96% RH): 75.4% | Percent of Initial Insulin Content in the Coating ([2]; Amino Acid L-Arginine (Arg-HCl 12 mg/mL), Day 3 at 40° C./96% RH): 45.9% | Percent of Initial Insulin Content in the Coating ([2]; Amino Acid L-Arginine (Arg-HCl 12 mg/mL), Day 7 at 40° C./96% RH): 27.1% | Percent of Initial Insulin Content in the Coating ([2]; Amino Acid L-Arginine (Arg-HCl 12 mg/mL), Initial): 100% | Percent of Initial Insulin Content in the Coating ([2]; Amino Acid None (control), Day 3 at 40° C./96% RH): 0% | Percent of Initial Insulin Content in the Coating ([2]; Amino Acid None (control), Day 7 at 40° C./96% RH): 0% | Percent of Initial Insulin Content in the Coating ([2]; Amino Acid None (control), Day 14 at 40° C./96% RH): 0% | Percent of Initial Insulin Content in the Coating ([2]; Amino Acid None (control), Initial): 100%
